Reference: patent US20250043302A1, “MUTATED HYDROXYPHENYLPYRUVATE DIOXYGENASE POLYPEPTIDE, AND CODING GENE AND USE THEREOF” (BEIJING DABEINONG BIOTECHNOLOGY CO., LTD., priority 2021, published 2025)
Positions count from the first letter of the chain named. In names and notes the source's numbering stands.

B1: MsHPPDm-F372A-F383W-02: nucleotide sequence encoding Medicago sativa HPPD with F372A+F383W; vector DBN11737 (nucleic acid)
DNA: ATGGCTATTGAAACCGAAACACAAACTCAGACTGGATTTAAACTGGTAGGGTTCAAGAATTTCGTTAGGGCTAATCCCAAGTCTGATCGTTTTAAGGTCAAGAGGTTCCACCACGTGGAGTTCTGGTGCACTGATGCAACCAACACGGCGCGGCGTTTTTCACATGGTCTTGGAATGCCTATTGTTGCAAAATCCGACCTCTCCACGGGGAACCAAACACACGCCTCTTACCTGCTACGGAGTGGTGACTTGAACTTCCTCTTCAGCGCCGCCTACTCACCCTCCATATCGTTGTCTTCACCATCCTCGACCGCAGCAATTCCTACATTTTCTGCGAGCAACTGCTTCTCTTTCTCTGCCAGTCATGGCCTCGCCGTCAGAGCAGTGGCCGTTGAAGTAGAGGATGCTGAACTTGCTTTTACAACTTCAGTGAATAATGGAGCAATACCGAGCAGTCCGCCGGTCATACTTGAGAATCATGTGAAGCTAGCGGAGGTGAGGCTTTATGGGGACGTCGTTTTAAGATATGTCAGCTACAATGATCCAAACCCCAATCAAAATCCAAATTTGTTGTTCCTTCCTGGCTTCGAGCGTGTTAGCGATGAATCTTCAAACTCTTCACTGGATTTTGGAATCAGACGGTTGGATCATGCTGTTGGAAATGTTCCTGAACTCTCGAGCGCTGTGAAATATGTGAAGGACTTCACCGGTTTTCATGAATTTGCTGAGTTTACTGCAGAAGATGTGGGTACATCAGAGAGTGGCTTGAATTCCGTGGTGCTCGCCAACAACGAGGAGACTGTACTCTTACCAATGAATGAGCCAGTCTATGGCACCAAGCGTAAATCTCAAATTGAGACATATTTGGAGCACAATGAAGGAGCTGGACTTCAGCATCTCGCGCTGAAGAGTGAGGACATCTTCCGCACCCTACGGGAGATGAGGAAAAGAAGTGGTGTTGGTGGGTTTGAATTCATGCCATCACCTCCTGTCACCTACTACAGGAACCTGAAGAACAGAGTTGGTGATGTACTTTCGGACGAGCAGATAAAGGAATGTGAAGAGTTGGGGATTTTGGTTGATAGAGATGATCAAGGAACACTCCTGCAGATTGCCACAAAACCAATTGGCGACCGCCCCACTATCTGGATAGAGATCATCCAGAGGGTGGGGTGCATGCTCAAAGACGAGGAAGGGAAGGAGTACCAGAAGGGCGGCTGTGGTGGTTTTGGGAAAGGAAACTTTTCTGAGTTATTCAAATCAATTGAAGAGTATGAGAAGACGCTTGAAACGCGTCGCACTGCTTGA
modifications: MsHPPDm-F372A-F383W-02 Nucleotide Sequence
notes: vector DBN11737
B2: MsHPPDm-F383W-02: nucleotide sequence encoding Medicago sativa HPPD with F383W; vector DBN11736 (nucleic acid)
DNA: B1 DNA with G1114T, C1115T, C1116T
modifications: MsHPPDm-F383W-02 Nucleotide Sequence
notes: vector DBN11736
B3: MsHPPDm-F372A-02: nucleotide sequence encoding Medicago sativa HPPD with F372A; vector DBN11735 (nucleic acid)
DNA: B1 DNA with G1148T, G1149C
modifications: MsHPPDm-F372A-02 Nucleotide Sequence
notes: vector DBN11735

Key:
Type in all cases: in vivo
[1] = tested on: Arabidopsis thaliana T1 plants; assay: Isoxaflutole tolerance of transgenic Arabidopsis thaliana T1 plants (spray, bleached leaf area grade, damage score); parameters: Scores (pesticide damage): scale not given here; conditions: spray, Arabidopsis thaliana T1 plants; for Classification and statistics of the grade of pesticide damage: Grade 0 (number of plants) / Classification and statistics of the grade of pesticide damage: Grade 1 (number of plants) / Classification and statistics of the grade of pesticide damage: Grade 2 (number of plants) / Classification and statistics of the grade of pesticide damage: Grade 3 (number of plants): 16 plants
Method in brief: (§1)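 Read-out: per-plant damage grade 0–3 from proportion of bleached leaf area at 7 DAT (1 <50%, 2 >50%, 3 100%). Plants were T1 transformants, glufosinate-selected, plus wild-type CK, sprayed 18 days post-sowing. Rates: topramezone 25–200, isoxaflutole 35–280, mesotrione 52.5–420 g ai/ha.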

[2] = tested on: Arabidopsis thaliana T1 plants; assay: Mesotrione tolerance of transgenic Arabidopsis thaliana T1 plants (spray, bleached leaf area grade, damage score); parameters: Scores: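 damage score 0-100 computed as Σ(N×S)/(T×M)×100 over grades 0-3 with higher meaning more damage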; conditions: Arabidopsis thaliana T1 plants; for Grade 0 (classification and statistics of the grade of pesticide damage; number of plants) / Grade 1 (classification and statistics of the grade of pesticide damage; number of plants) / Grade 2 (classification and statistics of the grade of pesticide damage; number of plants) / Grade 3 (classification and statistics of the grade of pesticide damage; number of plants): 16 plants
Method in brief: as §1

[3] = tested on: Arabidopsis thaliana T1 plants; assay: Topramezone tolerance of transgenic Arabidopsis thaliana T1 plants (spray, bleached leaf area grade, damage score); conditions: 7 DAT, Table 4; for Classification and statistics of the grade of pesticide damage: Grade 0 / Classification and statistics of the grade of pesticide damage: Grade 1 / Classification and statistics of the grade of pesticide damage: Grade 2 / Classification and statistics of the grade of pesticide damage: Grade 3: number of plants; for Scores: pesticide damage score 0-100
Method in brief: as §1

[4] = isoxaflutole 35 g ai/ha (0.5x field concentration)
[5] = isoxaflutole 70 g ai/ha (1x field concentration)

Molecule | Resistance evaluation [1, 4] | Scores (pesticide damage) [1, 4] | Classification and statistics of the grade of pesticide damage: Grade 0 (number of plants) [1, 4] | Classification and statistics of the grade of pesticide damage: Grade 1 (number of plants) [1, 4] | Classification and statistics of the grade of pesticide damage: Grade 2 (number of plants) [1, 4] | Classification and statistics of the grade of pesticide damage: Grade 3 (number of plants) [1, 4] | Resistance evaluation [1, 5] | Scores (pesticide damage) [1, 5] | Classification and statistics of the grade of pesticide damage: Grade 0 (number of plants) [1, 5] | Classification and statistics of the grade of pesticide damage: Grade 1 (number of plants) [1, 5] | Classification and statistics of the grade of pesticide damage: Grade 2 (number of plants) [1, 5] | Classification and statistics of the grade of pesticide damage: Grade 3 (number of plants) [1, 5] | Resistance evaluation ([2]; mesotrione 52.5 g ai/ha) | Scores ([2]; mesotrione 52.5 g ai/ha) | Grade 0 (classification and statistics of the grade of pesticide damage; number of plants) ([2]; mesotrione 52.5 g ai/ha) | Grade 1 (classification and statistics of the grade of pesticide damage; number of plants) ([2]; mesotrione 52.5 g ai/ha) | Grade 2 (classification and statistics of the grade of pesticide damage; number of plants) ([2]; mesotrione 52.5 g ai/ha) | Grade 3 (classification and statistics of the grade of pesticide damage; number of plants) ([2]; mesotrione 52.5 g ai/ha) | Resistance evaluation ([2]; mesotrione 105 g ai/ha) | Scores ([2]; mesotrione 105 g ai/ha) | other results
B1 | Moderately | 27 | 5 | 9 | 2 | 0 | Moderately | 33 | 2 | 12 | 2 | 0 | Moderately | 33 | 3 | 10 | 3 | 0 | Non-resistant | 79 | Grade 0 (classification and statistics of the grade of pesticide damage; number of plants) ([2]; mesotrione 105 g ai/ha): 0; Grade 1 (classification and statistics of the grade of pesticide damage; number of plants) ([2]; mesotrione 105 g ai/ha): 0; Grade 2 (classification and statistics of the grade of pesticide damage; number of plants) ([2]; mesotrione 105 g ai/ha): 10; Grade 3 (classification and statistics of the grade of pesticide damage; number of plants) ([2]; mesotrione 105 g ai/ha): 6; Classification and statistics of the grade of pesticide damage: Grade 0 ([3]; topramezone 25 g ai/ha (1×)): 6; Classification and statistics of the grade of pesticide damage: Grade 1 ([3]; topramezone 25 g ai/ha (1×)): 9; Classification and statistics of the grade of pesticide damage: Grade 2 ([3]; topramezone 25 g ai/ha (1×)): 1; Classification and statistics of the grade of pesticide damage: Grade 3 ([3]; topramezone 25 g ai/ha (1×)): 0; Classification and statistics of the grade of pesticide damage: Grade 0 ([3]; topramezone 100 g ai/ha (4×)): 0; Classification and statistics of the grade of pesticide damage: Grade 1 ([3]; topramezone 100 g ai/ha (4×)): 8; Classification and statistics of the grade of pesticide damage: Grade 2 ([3]; topramezone 100 g ai/ha (4×)): 6; Classification and statistics of the grade of pesticide damage: Grade 3 ([3]; topramezone 100 g ai/ha (4×)): 2; Scores ([3]; topramezone 25 g ai/ha (1×)): 23; Scores ([3]; topramezone 100 g ai/ha (4×)): 54; Resistance evaluation ([3]; topramezone 25 g ai/ha (1×)): moderately; Resistance evaluation ([3]; topramezone 100 g ai/ha (4×)): poorly
B2 | Non-resistant | 88 | 0 | 0 | 6 | 10 | Non-resistant | 100 | 0 | 0 | 0 | 16 | Non-resistant | 100 | 0 | 0 | 0 | 16 | Non-resistant | 100 | Grade 0 (classification and statistics of the grade of pesticide damage; number of plants) ([2]; mesotrione 105 g ai/ha): 0; Grade 1 (classification and statistics of the grade of pesticide damage; number of plants) ([2]; mesotrione 105 g ai/ha): 0; Grade 2 (classification and statistics of the grade of pesticide damage; number of plants) ([2]; mesotrione 105 g ai/ha): 0; Grade 3 (classification and statistics of the grade of pesticide damage; number of plants) ([2]; mesotrione 105 g ai/ha): 16; Classification and statistics of the grade of pesticide damage: Grade 0 ([3]; topramezone 25 g ai/ha (1×)): 0; Classification and statistics of the grade of pesticide damage: Grade 1 ([3]; topramezone 25 g ai/ha (1×)): 0; Classification and statistics of the grade of pesticide damage: Grade 2 ([3]; topramezone 25 g ai/ha (1×)): 4; Classification and statistics of the grade of pesticide damage: Grade 3 ([3]; topramezone 25 g ai/ha (1×)): 12; Classification and statistics of the grade of pesticide damage: Grade 0 ([3]; topramezone 100 g ai/ha (4×)): 0; Classification and statistics of the grade of pesticide damage: Grade 1 ([3]; topramezone 100 g ai/ha (4×)): 0; Classification and statistics of the grade of pesticide damage: Grade 2 ([3]; topramezone 100 g ai/ha (4×)): 0; Classification and statistics of the grade of pesticide damage: Grade 3 ([3]; topramezone 100 g ai/ha (4×)): 16; Scores ([3]; topramezone 25 g ai/ha (1×)): 92; Scores ([3]; topramezone 100 g ai/ha (4×)): 100; Resistance evaluation ([3]; topramezone 25 g ai/ha (1×)): non-resistant (non-resistant plants (scores 68-100)); Resistance evaluation ([3]; topramezone 100 g ai/ha (4×)): non-resistant (non-resistant plants (scores 68-100))
B3 | Poorly | 54 | 0 | 6 | 10 | 0 | Non-resistant | 100 | 0 | 0 | 0 | 16 | Poorly resistant | 52 | 0 | 9 | 5 | 2 | Non-resistant | 100 | Grade 0 (classification and statistics of the grade of pesticide damage; number of plants) ([2]; mesotrione 105 g ai/ha): 0; Grade 1 (classification and statistics of the grade of pesticide damage; number of plants) ([2]; mesotrione 105 g ai/ha): 0; Grade 2 (classification and statistics of the grade of pesticide damage; number of plants) ([2]; mesotrione 105 g ai/ha): 0; Grade 3 (classification and statistics of the grade of pesticide damage; number of plants) ([2]; mesotrione 105 g ai/ha): 16; Classification and statistics of the grade of pesticide damage: Grade 0 ([3]; topramezone 25 g ai/ha (1×)): 5; Classification and statistics of the grade of pesticide damage: Grade 1 ([3]; topramezone 25 g ai/ha (1×)): 7; Classification and statistics of the grade of pesticide damage: Grade 2 ([3]; topramezone 25 g ai/ha (1×)): 4; Classification and statistics of the grade of pesticide damage: Grade 3 ([3]; topramezone 25 g ai/ha (1×)): 0; Classification and statistics of the grade of pesticide damage: Grade 0 ([3]; topramezone 100 g ai/ha (4×)): 0; Classification and statistics of the grade of pesticide damage: Grade 1 ([3]; topramezone 100 g ai/ha (4×)): 4; Classification and statistics of the grade of pesticide damage: Grade 2 ([3]; topramezone 100 g ai/ha (4×)): 9; Classification and statistics of the grade of pesticide damage: Grade 3 ([3]; topramezone 100 g ai/ha (4×)): 3; Scores ([3]; topramezone 25 g ai/ha (1×)): 31; Scores ([3]; topramezone 100 g ai/ha (4×)): 65; Resistance evaluation ([3]; topramezone 25 g ai/ha (1×)): moderately; Resistance evaluation ([3]; topramezone 100 g ai/ha (4×)): poorly
